Entries after “also recorded” stand apart in the source; their conditions may differ. Like-named read-outs stand apart in the source and are kept apart here.

The values below come from patent US20150004637A1, “SYSTEMS AND METHODS FOR IMAGING AT HIGH SPATIAL AND/OR TEMPORAL PRECISION” (President and Fellows of Harvard College, priority 2011, published 2015).

Common to all, as to assay type: cell-based
The subject of one data set is HEK 293 cells. The data set is described as follows: Arch fluorescence as a function of membrane potential, whole-cell voltage clamp. As to conditions: for Approx ΔF/F per 100 mV: Table 2, described herein. On the procedure:
Fluorescence of Arch in HEK 293 cells supplemented with about 5 μM all-trans retinal (See Methods 4) was readily imaged in an inverted fluorescence microscope with red illumination (λ=640 nm, about 20 mW, and about I=540 W/cm^2), a high numerical aperture objective (NA), a Cy5 filter set, and an EMCCD camera (See Methods 5, FIG. 3A). […] Cells not expressing Arch were not fluorescent.
(4) HEK cell culture. HEK-293 cells were grown at 37° C., 5% CO2, in DMEM supplemented with 10% FBS and penicillin-streptomycin. Plasmids were transfected using Lipofectamine and PLUS reagent (Invitrogen) following the manufacturer's instructions, and assayed between 48-72 hours later. The day before recording, cells were re-plated onto glass-bottom dishes (MatTek) at a density of ˜5000 cells/cm^2.
The concentration of endogenous retinal in the HEK cells was not known, so the cells were supplemented with retinal by diluting stock retinal solutions (40 mM, DMSO) in growth medium to a final concentration of 5 micromolar, and then placing the cells back in the incubator for 1-3 hours. All imaging and electrophysiology were performed in Tyrode buffer (containing, in mM: 125 NaCl, 2 KCl, 3 CaCl2, 1 MgCl2, 10 HEPES, 30 glucose pH 7.3, and adjusted to 305-310 mOsm with sucrose). Only HEK cells having reversal potentials between −10 and −40 mV were included in the analysis.
(5) Microscopy. Simultaneous fluorescence and whole-cell patch clamp recordings were acquired on a home-built, inverted epifluorescence microscope, operated at room temperature. One goal was to collect fluorescence with high efficiency, while also achieving a large enough field of view to image an entire neuron and its processes. Typically, microscope objectives offer a tradeoff between magnification and light-gathering capacity (numerical aperture). Additionally, the ability to change magnification while maintaining a patch on a single cell was important in some cases. Typically the vibrations associated with switching objectives—particularly water or oil immersion objectives—are incompatible with simultaneous patch clamp. In addition, in some cases, the capability to split the field of view into two wavelength bands, and to change magnification without changing the registration of the two halves of the image was important.
(6) Electrophysiology. Filamented glass micropipettes (WPI) were pulled to a tip resistance of 3-10 megohm fire polished, and filled with internal solution (containing, in mM: 125 potassium gluconate, 8 NaCl, 0.6 MgCl2, 0.1 CaCl2, 1 EGTA, 10 HEPES, 4 Mg-ATP, 0.4 Na-GTP, pH 7.3; adjusted to 295 mOsm with sucrose). The micropipettes were positioned with a Burleigh PCS 5000 micromanipulator. Whole-cell, voltage clamp recordings were acquired using an AxoPatch 200B amplifier (Molecular Devices), filtered at 2 kHz with the internal Bessel filter, and digitized with a National Instruments PCIE-6323 acquisition board at 10 kHz. […]
(7) Ramp and step-response of Arch WT and D95N. To measure fluorescence as a function of membrane potential, a triangle wave was applied, with amplitude from −150 mV to +150 mV and period 12 s, with video recording at 100 ms per frame. A pixel weight matrix was calculated according to Eq. S2 (below) and applied to the movie images to generate a fluorescence number for each frame. These fluorescence values were divided by their minimum value (at V=−150 mV). […] Background subtraction from the raw fluorescence would have yielded considerably larger values of delta-F/F.

The subject of data set [1] is cultured rat hippocampal neurons. In words: Optical recording of action potentials in cultured neurons. On the procedure: Arch was tested as a voltage indicator in cultured rat hippocampal neurons, using viral delivery (Methods 10-11). […] Individual spikes were accompanied by clearly identifiable increases of whole-field fluorescence (FIG. 11B). Preferentially weighting pixels whose intensity co-varied with the whole-field fluorescence led to an about 74% improvement in SNR (FIG. 11C). This training procedure made no use of the electrical recording. Training the pixel-weighting algorithm on the electrical recording led to a further 5% increase in SNR. (FIG. 11D).
(11) Neuronal cell culture. E18 rat hippocampi were purchased from BrainBits and mechanically dissociated in the presence of 1 mg/mL papain (Worthington) before plating at 5,000 to 30,000 cells per dish on poly-L-lysine and Matrigel-coated (BD Biosciences) glass-bottom dishes. […] Cells were incubated in N+ medium (100 mL Neurobasal medium, 2 mL B27 supplement, 0.5 mM glutamine, 25 micromolar glutamate, penicillin-streptomycin) for 3 hours. An additional 300 microliter virus medium was added to the cells and incubated overnight, then brought to a final volume of 2 mL N+ medium. After two days, cells were fed with 1.5 mL N+ medium. Cells were fed with 1 mL N+ medium without glutamate at 4 DIV, and fed 1 mL every 3-4 days after. Cells were allowed to grow until 10-14 DIV. […]
Whole-cell current clamp recordings were obtained from mature neurons under the same conditions used for HEK cells recordings. Series resistance and pipette capacitance were corrected. Only neurons having resting potentials between −50 and −70 mV were used in the analysis.
(12) Spike sorting. A spike identification algorithm was developed that could be applied either to electrically recorded V(t) or to optically determined VFL(t). The input trace was convolved with a reference spike. Sections of the convolved waveform that crossed a user-defined threshold were identified as putative spikes. Multiple spikes that fell within 10 ms (a consequence of noise-induced glitches near threshold) were clustered and identified as one.

The next data set deals with HEK cells. In words: Step response of fluorescence to membrane potential steps. As to conditions: for Approx response time: Table 2, described herein; for τresponse: determined from step-response. The method, then:
The step response was measured in a similar manner, except that test waveforms consisted of a series of voltage pulses, from −70 mV to +30 mV with duration 300 ms and period 1 s. Cells were subjected to 20 repetitions of the waveform, and the fluorescence response was averaged over all iterations.

[2] abbreviates: steps between −70 mV and +30 mV.

B1: Archaerhodopsin 3 (protein)
chain: MDPIALQAGYDLLGDGRPETLWLGIGTLLMLIGTFYFLVRGWGVTDKDAREYYAVTILVPGIASAAYLSMFFGIGLTEVTVGGEMLDIYYARYADWLFTTPLLLLDLALLAKVDRVTIGTLVGVDALMIVTGLIGALSHTAIARYSWWLFSTICMIVVLYFLATSLRSAAKERGPEVASTFNTLTALVLVLWTAYPILWIIGTEGAGVVGLGIETLLFMVLDVTAKVGFGFILLRSRAILGDTEAPEPSAGADVSAAD
modifications: Halorubrum sodomense
notes: Microbial rhodopsin from Halorubrum sodomense, light-driven proton pump used as fluorescent voltage indicator; experiments used an Arch-eGFP fusion
In the case of B1, the “Approx ΔF/F per 100 mV” value in the data set with HEK 293 cells came out at 66%. For the same molecule, the photobleaching result in the data set with HEK 293 cells (continuous 10-minute exposure, 640 nm, about 540 W/cm^2, HEK 293 cells) was “about 17%”. Further, in data set [1], the “optical signal-to-noise ratio of single electrically triggered action potentials” value was “greater than 10”. For the same molecule, in data set [1] (10 μM retinal, over 30 minutes, neuron depolarized with CCCP), the “increase in fluorescence after addition of supplemental retinal” value was 30-60%. Also, the “signal-to-noise ratio in the fluorescence (spike amplitude:baseline noise)” value in data set [1] (2 kHz frame rate, single trial) was “about 10.5”. Besides, in data set [1] (I=1800 W/cm^2, total internal reflection mode), the “light-induced outward photocurrent in neurons” value is on record as “about 10 pA”. Moreover, in data set [1] (current-clamp, I=1800 W/cm^2), the “shift of resting potential by photocurrent” value is recorded as “up to −20 mV”. Also, the “false-positive rate of spike identification” value in data set [1] (n=269 spikes) is 0.7%. Also, in data set [1] (n=269 spikes, versus simultaneously recorded membrane potential), the “spikes correctly identified by spike-finding algorithm” value is recorded as 99.6%. Moreover, the “r.m.s. deviation between fluorescence and voltage” value in data set [1] (pixel weights from correlation to electrophysiology data) was 4.0 mV. For the same molecule, in data set [1] (pixel weights from correlation to whole-field intensity), the “r.m.s. deviation of fluorescence from electrophysiology data” value was 4.2 mV. Also, in data set [1] (whole-field fluorescence, single trial, 500 frames/s), the “r.m.s. deviation of fluorescence from electrophysiology data” value turned out to be 7.3 mV. In addition, in the data set with HEK cells, the “time for 90% of step response” value is recorded as < 0.5 ms, the Approx response time is <0.5 ms and the τresponse was < 0.5 ms.

B2: Arch D95N: Archaerhodopsin 3 with aspartic acid 95 mutated to asparagine; non-pumping voltage indicator (protein, UniProt P96787 7-258, looked up, variant D95N)
Archaerhodopsin-3: QAGYDLLGDGRPETLWLGIGTLLMLIGTFYFLVRGWGVTDKDAREYYAVTILVPGIASAAYLSMFFGIGLTEVTVGGEMLDIYYARYANWLFTTPLLLLDLALLAKVDRVTIGTLVGVDALMIVTGLIGALSHTAIARYSWWLFSTICMIVVLYFLATSLRSAAKERGPEVASTFNTLTALVLVLWTAYPILWIIGTEGAGVVGLGIETLLFMVLDVTAKVGFGFILLRSRAILGDTEAPEPSAGADVSAAD
With B2, in the data set with HEK 293 cells, the “greater sensitivity than wild-type” value came out at 50% and the “Approx ΔF/F per 100 mV” value was found to be 100%. For the same molecule, in the data set with HEK 293 cells (whole-cell voltage clamp, no background subtraction), the “increase in fluorescence between −150 mV and +150 mV” value is “about 3 fold”. Besides, the “effect of illumination on membrane potential / spiking in neurons” value in data set [1] (I=1800 W/cm^2, λ=640 nm) is “did not perturb membrane potential; also recorded: no effect of illumination on spiking or resting potential”. In the data set with HEK cells, this molecule showed a response time of 41 ms, an Approx response time of 41 ms and a τresponse of 41 ms. Moreover, in the data set on HEK cells (listed as Arch 3 D95N), the response time is given as 40 ms. In the data set on HEK cells (setting [2]), the “fast component of step response” value is on record as < 500 μs, the “fraction of step response that is fast” value is recorded as “about 20%” and the “time constant of slow component of step response” value is reported as 41 ms. Moreover, the “fraction of step response that is fast” value in the data set with HEK cells (steps between −70 mV and +30 mV, listed as ArchD95N) stood at 20%.
